The target in assay [1] is ComR of Streptococcus mutans UA159 (Streptococcus mutans UA159). In words: ITC; XIP 600 μM injected into ComR 20 μM; 20 mM Tris pH 7.5, 100 mM NaCl, 1 mM β-ME with matched DMSO; VP-ITC, 25 °C; one-site model.
Assay [2] has the same target. Kind of assay: ITC; paratox 240 μM injected into ComR 20 μM; 20 mM Tris pH 7.5, 100 mM NaCl, 1 mM β-ME; VP-ITC, 25 °C; one-site model.
Assay [3] has the same target.

Turning to “XIP (sigX-inducing peptide) of Streptococcus mutans UA159”, in assay [1], the Kd – broadly, the free concentration of one partner at which half of the binding sites on the other are occupied at equilibrium, for simple one-to-one binding – is 3600 nM and the stoichiometry N (as a rule, the number of molecules, sites or subunits per partner or assembly) worked out at 1.01.

In assay [2], “paratox (Prx) of Streptococcus pyogenes MGAS315 (from UniProt Q4VUT1 1-60) (natural protein)” registered an equilibrium dissociation constant (Kd) of 133 nM and a stoichiometry N of 0.95. Further, the PsigX-luxAB reporter in S. mutans with MGAS315 prx in trans, 200 nM XIP, against the empty vector in assay [3] is over 2 fold.

With “paratox of Streptococcus pyogenes MGAS5005, prophage MGAS5005.3 (prx3) (from UniProt Q4VUT1 1-60) (natural protein)”, the PsigX-luxAB reporter in S. mutans with MGAS5005 prx3 in trans, 200 nM XIP, against the empty vector in assay [3] was over 2 fold.

On to “paratox of Streptococcus pyogenes MGAS8232 (from UniProt Q4VUT1 1-60) (natural protein)”, for which the PsigX-luxAB reporter in S. mutans with MGAS8232 prx in trans, 200 nM XIP, against the empty vector in assay [3] was over 2 fold.

These data come from article PMC6224593.
